Results: patent US6365366

Key:
Design in all cases: key to the marks not given beside the values
[1] = test system: T1, GGSLMTSF peptide (SEQ ID NO:5)
T1 sequence: GGSLMTSF

[2] = test system: T2, AKDVDQGSLCTSLVGTLQY peptide (SEQ ID NO:12)
T2 sequence: AKDVDQGSLCTSLVGTLQY

[3] = test system: T3, DQGSFCTSL peptide (SEQ ID NO:7)
T3 sequence: DQGSFCTSL

[4] = test system: T4, VDQGSLAASFVGT peptide (SEQ ID NO:8)
T4 sequence: VDQGSLAASFVGT

[5] = test system: T5, GGSFCTSL peptide (SEQ ID NO:6)
T5 sequence: GGSFCTSL

[6] = test system: T6, VDQGSMAASLVGT peptide (SEQ ID NO:9)
T6 sequence: VDQGSMAASLVGT

[7] = test system: T7, GGSLCTSF peptide (SEQ ID NO:4)
T7 sequence: GGSLCTSF

[8] = test system: T8, AKDVDQGSFCTSLVGTLQY peptide (SEQ ID NO:13)
T8 sequence: AKDVDQGSFCTSLVGTLQY

[9] = test system: T9, VDQGSIAASFVGT peptide (SEQ ID NO:10)
T9 sequence: VDQGSIAASFVGT

[10] = test system: T10, AKDVDQGSVCTSFVGTLQY peptide (SEQ ID NO:11)
T10 sequence: AKDVDQGSVCTSFVGTLQY

Measured: T2K substrate specificity

T2K kinase
+++: all assays above
